In PMC12107149 (Proceedings of the National Academy of Sciences of the …, 2022):

Biological target: PU.1 DNA-binding domain (PU.1^DBD) (human, UniProt P17947 168-270)
Experiment: NMR titration

- binding result: binds
B1: EWS low-complexity domain (EWS^LCD) (domain or fragment)
chain: ASTDYSTYSQAAAQQGYSAYTAQPTQGYAQTTQAYGQQSYGTYGQPTDVSYTQAQTTATYGQTAYATSYGQPPTGYTTPTAPQAYSQPVQGYGTGAYDTTTATVTTTQASYAAQSAYGTQPAYPAYGQQPAATAPTRPQDGNKPTETSQPQSSTGGYNQPSLGYGQSNYSYPQVPGSYPMQPVTAPPSYPPTSYSSTQPTSYDQSSYSQQNTYGQPSSYGQQSSYGQQSSYGQQPPTSYPPQTGSYSQAPSQYSQQSSSYGQQ
